The text below walks through data of patent publication US20130089544A1.

Experiment [1] has as its target human ErbB2, full length, on cells (human) (UniProt P04626). The experiment can be described thus: cell-based or functional assay.
Experiment [2] concerns the target human ErbB2 ECD-myc/His fusion protein (human) (UniProt P04626). Nature of the experiment: SPR, Biacore T100 high resolution; mAb captured on goat anti-human IgG, hHer-2(ECD)cMyc injected; 1:1 fit. A general note: In SPR one partner is held on a chip, and binding of the other changes the refractive index at the surface.

Usually Kd stands for the free concentration of one partner at which half of the binding sites on the other are occupied at equilibrium, for simple one-to-one binding. Low readings indicate tighter binding, high ones weaker binding.

For the substance chimeric anti-hErbB2 antibody 2C4, in experiment [1], the % Inhibition @10 µg/ml, Heregulin-induced MCF7 cell proliferation stood at 90%; the EC50 (ng/ml) n1, inhibition of Heregulin-induced ErbB2 phosphorylation in MCF7 cells worked out at 43.6 ng/mL; the EC50 (ng/ml) n2, inhibition of Heregulin-induced ErbB2 phosphorylation in MCF7 cells came out at 14.6 ng/mL; the EC50 (ng/ml), inhibition of Heregulin-induced MCF7 cell proliferation stood at 404 ng/mL. In addition, in experiment [1], the EC50 (ng/ml), inhibition of SKBR3 cell proliferation is above 36000 ng/mL; the N1 % Inhibition @40 µg/ml, BT474 cell proliferation was -9%; the N1 EC50 (ng/ml), inhibition of BT474 cell proliferation is above 40000 ng/mL; the N2 EC50 (ng/ml), inhibition of BT474 cell proliferation worked out at 4750 ng/mL. For the same substance, the dissociation constant (Kd) in experiment [2] amounted to 3.2 nM.
